Measurements from the nanobody polyreactivity screen of Harvey et al. (2022).

Experiment: yeast display, Sf9 membrane polyspecificity reagent, FACS + sequencing; frameworks hold sequencing errors
Summary of the method: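 Galactose-induced (36–48 hours) yeast carrying a synthetic nanobody display library were exposed to 10% biotinylated, detergent-solubilized Sf9 membrane reagent at 4 °C for 1 hour. FACS followed streptavidin microbead enrichment, using low and high (top ~1%) gates for expression (anti-HA) and reagent binding (streptavidin). Colony PCR, MiSeq 2 × 250 sequencing and CDR-length filtering followed. Labels for polyreactivity reflect the gate of origin.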

Which “polyreactivity (PSR sort gate)” value does the source give for “QVQLVESGGGLVQAGGSLRLSCAASGSIFGYNTMGWYRQAPGKERELVATITRGGSTHYADSVKGRFTISRDNAKNTVYLQMNSLKPEDTAVYYCAATRLSYVRLYRFSQQYYYWGQGTQVTVSS” here?
Its value is “high polyreactivity”.

For “QVQLVESGGGLVQAGGSLRLSCAASGRIYWYYAMAWSRQAPGKERELVAAINSGGNTNYADSVKGRFTISRDNAKNTVYLKMNSLKPEDTAVYYCAKGRWPLLLSKDLYYWGQGTQVTVSS”, which “polyreactivity (PSR sort gate)” value is on record?
Its value is “high polyreactivity”.

Which “polyreactivity (PSR sort gate)” value does the source give for “QVQLVESGGGLVQAGGSLLLICADSGITFYGNAMGWYRQAPGKERELVAAISSSGGTTYYADSVKGRFTISRDNAKNTVYLQMNSLKPEDTAVYYCNAVDGIHPYASPSFQQYDYWGQGTQVTVSS” here?
The value was “low polyreactivity”.

With “QVQLVESGGGLVQAGGSLGLSCAASGFTFGHYAMGWYRPAPGKERELVAAISIDGGRTYYADSVKGRFTISRDNAKKTVYLQMNSLKPEDTAVYYCAVPGWVYYTSDYDYWGQGTQVTVSS” as the sequence, how does the “polyreactivity (PSR sort gate)” value read?
The value was “high polyreactivity”.

Which “polyreactivity (PSR sort gate)” value does the source give for “QVQLVESGGGLVQAGGSLRLSCAASGITFRSYEMGWYRAAPAKERELVAAISSGGSRTYYADSVKGRYTISRDNAKKTVYLQMNSLKPEDTAVYYCAATDRSDVYKGAYYYWGQGTQVTVSS” here?
The value was “high polyreactivity”.

Which “polyreactivity (PSR sort gate)” value does the source give for “QVQLVESGGGLVQAGGSLRLSCAASGRTFFYYAMGWYRQAPGKERELVAAISGRGGSTYYADSVKGRFTISRDNAKNTVYLQMNSLKPVDTAVYFCAAQSPFRRYTSPWYDYWGQGTQVTVSS” here?
Its value is “high polyreactivity”.

Which “polyreactivity (PSR sort gate)” value does the source give for “QVQLVESGGGLVQAGGSLRLSCAASGLTFVWYAMGWYIQAPGKERELVAGITSGGRTYYADSVKGRFTISRDNAKNTVYLQMISLKPEDTGVYDCNAVVRWGYGYDYWGQGTQVTVSS” here?
The value was “high polyreactivity”.

With “QVQLVESGGGLVQAGGSLRLSCAASGFIFGYNVMGWYRQAPGKERELVAAISSRGSSTYYADSVKGRFTISRDDVKNTVYLQMNSLKPEDTAVYYCAAYSSYNSWVSRRYGHDYWGQGTQVTVSS” as the sequence, how does the “polyreactivity (PSR sort gate)” value read?
Its value is “high polyreactivity”.

For “QVQLVESGGGLVQAGGSLRLSCASSGFTFTSYAMGWYRQAPGKERELVAAISSSGGSTYYADSVKGRFTISRDNAKNTVYLQMNSLKPEDTAVYYCAAEYGYGEMDSWGQGTQVTVSS”, which “polyreactivity (PSR sort gate)” value is on record?
The value was “high polyreactivity”.

For “QVQLVESGGGLVQAGGSLRLSCAASGITFTSYVMGWYRQAPGKERELVAAIRWSGGRTYYADSVKGRFTISRDNAKNTDYLQMNTLKPAATAVYYCNRVTRSHVDYWGQGTQVTVSS”, which “polyreactivity (PSR sort gate)” value is on record?
The value was “high polyreactivity”.

With “QVQLVESGGGLVQAGGSLRLSCAASGVNAMGWYRQAPGKEREFVAAITSIGGSTYYADSVKGRFTISRDNAKNTVYLQLNSLKPEDTAVYDCNTDRGPVKVSPLYESWGQGTQVTVSS” as the sequence, how does the “polyreactivity (PSR sort gate)” value read?
Its value is “low polyreactivity”.

Which “polyreactivity (PSR sort gate)” value does the source give for “QVQLVESGGGLVQAGGSLRLSCASSGRTFVWNAMGWYRQAPGKERELVAAIDWSGGSTYYADSVKGRFTISRDYAKITVYLQMNSLKPEDTAVYYCAKEYWYRALWYNYWGQGTQVTVSS” here?
The value was “high polyreactivity”.

For “QVQLEESGGGLVQAGGSLRLSCAASGITFISYAMGWYRQAPGKERELVAVISKSGGRTYYADSVKGRFTISRDNAKNTVYLQMNSLKPEDTAVYYCAATKRYASGMYYWGQGTQVTVSS”, which “polyreactivity (PSR sort gate)” value is on record?
Its value is “high polyreactivity”.

Which “polyreactivity (PSR sort gate)” value does the source give for “QVQLVESVGGLVQAGGSLRLSCAASGLTFGGNAMGRYRQAPGKVRELVAAISGSGGRTYYADSVKGRFTISRDNAKNTVYLQMNSLKPEDTAVYYCNAATKRRTSDYWGQGTQVTVSS” here?
The value was “high polyreactivity”.

Which “polyreactivity (PSR sort gate)” value does the source give for “QVQLVESGGGLVQAGGSLRLSCAASGSTFYIYAMGWYRQAPGKERELVAAINSGGGTNYADSVKGRFTISRDNAKNTVYLQMNSLKPEDTAVYYCAKTFYSLYWGQGTQVTVSS” here?
Its value is “low polyreactivity”.

For “QVQLVESGGGLVQEGGSLRLSCAASGLTFAGYAMGWYRQATGKERELVAAITTGGSTYYADSVNGRFTISRDNAKNTVYLQMNSLKPEDTAVYYCAARRVRKALVGYGYWGQGTQVTVSS”, which “polyreactivity (PSR sort gate)” value is on record?
The value was “high polyreactivity”.

With “QVQLVESGGGLVQAGGSLRLSCAASGFTFGENAMGWYRQAPWKERELVAAITSGDGTSYADSVKGRFTISRDNAKNTVYLQMNSLKPEVTAVYDCAADGGDELYYSTYDYWGQGTQVTVSS” as the sequence, how does the “polyreactivity (PSR sort gate)” value read?
Its value is “low polyreactivity”.

Which “polyreactivity (PSR sort gate)” value does the source give for “QVQLVDSGGGLDQAGGSLRLSCAASGSNLRLKAMGWYRQAPGKERELVADITRAGSTYYADSVKGRFTISRDNAKNTVYLQMNSLKPEDTAVYYCAADAYTGQIPYYYFEHYYWGHGTQVTVSS” here?
The value was “high polyreactivity”.

For “QVQLVESGGGLVQEGGSLRLSCAASGLIFGENAMGWYRQAPGKERELVAAISRRAGITYYADSVKGRFTISRDNAKNTVYLQMNSLKPVDTAVYYCAARKGAISSPYDYWGQGTQVTVSS”, which “polyreactivity (PSR sort gate)” value is on record?
Its value is “high polyreactivity”.

Which “polyreactivity (PSR sort gate)” value does the source give for “QDQLVESGGGLVQAGGSLRLSCAASGRTFRAYAMGWSRQAPGKERELVASISRRGGSTYYADSVKGRFTISRDNAKNTDYLQMNSLNPEDTAVYYCAASDKYLQYDDWGQGTEVTVSS” here?
Its value is “high polyreactivity”.

With “QVQLVESGGGLVQAGGSLRLSCAASGSNFRYNTMGSYRQAPGKERELVAAITQSGDNTYYADSVKGRFTISRDNAKNTVYLQMNSLKPEDTAVYYCAASGARSDGWTSYDYWGQGTQVTVSS” as the sequence, how does the “polyreactivity (PSR sort gate)” value read?
Its value is “low polyreactivity”.

Which “polyreactivity (PSR sort gate)” value does the source give for “QVQLVESGGGLVQAGGSLRLSCAASGRIFHRYAMGWYRQAPGKERELVAAITRGGSTNYADSVKGRFTISRDNAKNTVYLQMNSLKPEDTAVYYCNADVYAWYLSHRYDYWGQGTQVTVSS” here?
Its value is “low polyreactivity”.

With “QVQLVESRGGLVQAGGSLRLSCAASGGIFINYAMGWYRQAPGKERELVAAISRRGGSTYYADSVKGRFTISRDNAKNTVYLQMNSLKPEDTAVYYCNAVYLRGGMDYWGQGTQVTVSS” as the sequence, how does the “polyreactivity (PSR sort gate)” value read?
Its value is “high polyreactivity”.

For “QVQLVESGGGLVQAGGSLRLSCAASGGTFGLDAMGWYRQARGKERELVARISWSSGSTYYADSVKGRFTISRDNAKNTVYLQMNSLKPEDTAVYYCATDTYGAHAFFEFDYWGQGTQVTVSS”, which “polyreactivity (PSR sort gate)” value is on record?
The value was “low polyreactivity”.

Which “polyreactivity (PSR sort gate)” value does the source give for “QVQLVESGGGLVQAGGSLRLSCAASGSTFYRNAMGWYIQAPGKVRELVAAISQSGGRTYYADSVKGRFTISRDNAKNTVYLQMNSLKPEDTAVYYCATAFRKDRGFYPSRDYWGQGTQVTVSS” here?
Its value is “high polyreactivity”.

With “QVQLVESGGGLVQAGGSLRLSCAASGRTFGYNALGWYRQAPGKERELVAAINWSGASTYYADSVKGRFTISRDKAKNTVYLQMNSLKPEDTAVYYCAKVTRGSQYDYWGQGTQVTVSS” as the sequence, how does the “polyreactivity (PSR sort gate)” value read?
Its value is “low polyreactivity”.

For “QVQLVESGGGLVQAGGSLRLSCAASGRIFGKYTMGWYRQAPGKERELVAAISWGGGSTYYADSVKGRFTISRDNAKNTVYLQMNSLKPEDTAVYYCAADYYYYHTQEYDYWGQGTQVTVSS”, which “polyreactivity (PSR sort gate)” value is on record?
The value was “high polyreactivity”.

With “QVQLVESGGGLVQAGGSLRLSCAASGNIFFVYAMGWYRQAPGKERELVATITWRGDSTNYADSVKGRFTISRDNAKNTVYLQMNSLKPEDTAVYYCNAEDSYYTFEGDSWGQGTQVTVSS” as the sequence, how does the “polyreactivity (PSR sort gate)” value read?
Its value is “low polyreactivity”.

For “QVQLVESAAGLVQAGGSLRLSCAASGSNFYGNAMGWYRQAPGKERELVAAIRWRGGRTYYADSVKGRFTISRDNAKNTVYLQMNSMKPEDTAVYYCNALPGVSHTQYDRVGYWGQGTQVTVSS”, which “polyreactivity (PSR sort gate)” value is on record?
Its value is “high polyreactivity”.

Which “polyreactivity (PSR sort gate)” value does the source give for “QVQLVESGGGVVQAGGSLRLSCAASGFISKLYAMGWYRQAPGKEREMVAAISSSGTSTYYADSVKGRFTISRDHANNTVYLQMNSLKPEDTAVYYCNARWYVRAYEYDYWGQGTQVTVSS” here?
Its value is “low polyreactivity”.

With “QVQLVESGGGLVQAGGSLRLSCAASGRIIGYYTMGWYSQAPGKERELVAAITSGGRTYYADSVKGRFTISRDNAKNTVYLQMNSLKPEDTAVYYCAADWYYRSDYWGQGTQVTVSS” as the sequence, how does the “polyreactivity (PSR sort gate)” value read?
The value was “low polyreactivity”.

For “QVQLVESGGGLVHAGGSLRLSCAASGSIFAGYAMGRYRQAPGKERELVAAITSGGRTYYADSVKGRFTISRDNAKNTVYLQMNSLKPEDTAVYYCGKRWYTKTGYDYWGQGTQVTVSS”, which “polyreactivity (PSR sort gate)” value is on record?
Its value is “high polyreactivity”.

With “QVQLVESGGGLVQAGGSLRLSCAASGSTFYYYAMGWYRQAPGKEREFVAAITWSGGSTYYADSVKGRFTISRDNAKNTVYLQMNSLKQEDTGVYYCAKDQRYYYYGGGDYWGQGTQLTVSS” as the sequence, how does the “polyreactivity (PSR sort gate)” value read?
The value was “low polyreactivity”.

Which “polyreactivity (PSR sort gate)” value does the source give for “QVQLVESGGGLVQAGGSLRLSCAASGFIFGHYTMGWYRQAPGKERELVAAITTGGRTYYADSVKGRFTISRDNAKNTVYLQMNSLKPEDTAVYYCAARGYIWGQGTQVTVSS” here?
The value was “high polyreactivity”.

With “QVQLVESGGGLVQAGGSLRLSCAASGRTFYKNAMGWYRQEPGTERELVAAISSRGGRTTYADSVKGRFTISRDNAKNTVYLQMISLKPEDTAVYYCAADWAQVYHGTPKYYYWGQGTQVTVSS” as the sequence, how does the “polyreactivity (PSR sort gate)” value read?
Its value is “high polyreactivity”.

Which “polyreactivity (PSR sort gate)” value does the source give for “QVQLVESGGGLVQAGGSLRLSCAASGFTFYRYTMGWYRQPPGKERELVAAISARGVSTYYADSVKGRFTISRDNAKNTVYLQMNSLKPEDTAVYYCYVSRYDSWGQGTQVTVSS” here?
Its value is “high polyreactivity”.

Which “polyreactivity (PSR sort gate)” value does the source give for “QVHLVESGGGIDQAGGSLRLSCAASGSIFRNYAMAWKRQAPGKERELVAFITRGGSTYYADSVKVRFTISRDNAKNTVYFQMNSLKPEHTAVYYCAADFWPAGLDLGYWGQGTQVTLSS” here?
The value was “low polyreactivity”.

For “QVQLVESGGGLVQAGGSLRLSCAASGRIFWGYVMGWYRQAPGKERELVAAISSGGDTHYADSVKGRFTISRDNAKNTVYLQMNSLKPEDTAVYYCAKENQYYDSKVAGVLTGLYDYWGQGTQVTVSS”, which “polyreactivity (PSR sort gate)” value is on record?
The value was “low polyreactivity”.

For “QVQLVESVGGLVQAGGSLRLSCAASGSTLFYNAMGWYRQAPGKERELVATISGGGVSTYYADSVKGRFTISRDNAKNSVYLQMNSLNPEDTAVYYCAAAGWSEGGYDYWGQGTQVTVSS”, which “polyreactivity (PSR sort gate)” value is on record?
Its value is “low polyreactivity”.

For “QVQLEESGGGLVQAGGSLRLSCAASGITFVTYAMGWYRQAPGKERELVAAISRSGGRTYYADSVKGRFTISRDNAKNTVYLQMNSLKPDDTAVYYCAAERKNKYDYWVQGTQVTVSS”, which “polyreactivity (PSR sort gate)” value is on record?
Its value is “high polyreactivity”.

Which “polyreactivity (PSR sort gate)” value does the source give for “QVQLVESGGGLVQAGGSLRLSCAASGSTFYYHGRGWSRQAPGKERELVAVISISGGSTYYADSVKGSFTISRDNAKNTVDLQMNSLKPEDTAVYYCATSYVGRSAYRSYGARGGYWGQGTQVTVSS” here?
Its value is “low polyreactivity”.
